Test results published in publication PMC5095149, “Molecular cloning, heterologous expression, and enzymatic characterization of lysoplasmalogen‐specific phospholipase D from Thermocrispum sp” (FEBS Open Bio, 2016).
Residue numbers refer to the chain shown, from its start. In names and notes the source's numbering stands.

Experiments:
LyPls-PLD (rLyPls-PLD) = target: T1, LyPls-PLD (rLyPls-PLD) (Thermocrispum sp. RD004668, UniProt A0A0U4VTN7); test: inhibition of LyPlsCho hydrolysis, choline oxidase/peroxidase colorimetric assay; type: biochemical; conditions: read-out: Relative activity (%) ^a
T1 construct: gene lyspls; pET24a(+), E. coli SHuffle T7, HisTrap purified; kinetics calculated as monomer
Description: inhibition of LyPlsCho hydrolysis, choline oxidase/peroxidase colorimetric assay on LyPls-PLD (rLyPls-PLD)

purified protein = substrate: CCCCCCCCCCCCCCCC/C=C\OC[C@@H](O)COP(=O)(O)OCCN; test: purified protein; conditions: 80 mM Tris/HCl pH 8.0, 50 °C
[1] = substrate: CCCCCCCCCCCCCCCC/C=C\OC[C@@H](O)COP(=O)([O-])OCC[N+](C)(C)C; test: choline release, choline oxidase/peroxidase colorimetric assay; nonlinear Michaelis-Menten fit; type: biochemical, Thermocrispum sp. RD004668; conditions: 80 mM Tris/HCl pH 8.0, 50 °C, 2 mM CaCl2, 30 s
Description: choline release, choline oxidase/peroxidase colorimetric assay; nonlinear Michaelis-Menten fit on LyPls-PLD (rLyPls-PLD)

[2] = substrate: CCCCCCCCCCCCCCCC/C=C\OC[C@@H](O)COP(=O)([O-])OCC[N+](C)(C)C; test: choline release, choline oxidase/peroxidase colorimetric assay; Hanes-Woolf plot; type: biochemical, Thermocrispum sp. RD004668; conditions: 80 mM Tris/HCl pH 8.0, 50 °C, 2 mM CaCl2
Description: choline release, choline oxidase/peroxidase colorimetric assay; Hanes-Woolf plot on LyPls-PLD (rLyPls-PLD)

CCCCCCCCCCCCCCCC(=O)OC[C@@H](O)COP(=O)([O-])OCC[N+](C)(C)C [LPC, 1‐palmitoyl‐2‐hydroxy‐sn‐glycero‐3‐phosphocholine]
activity at 4000 µM (LyPls-PLD (rLyPls-PLD)): 60.7 ± 0.5%

CCCCCCCCCCCCCCCCCC(=O)OC[C@@H](O)COP(=O)(O)O [LPA, 1‐stearoyl‐2‐hydroxy‐sn‐glycero‐3‐phosphate]
activity at 4000 µM (LyPls-PLD (rLyPls-PLD)): 89.8 ± 0.3%

B1: LyPls-PLD (rLyPls-PLD) (Thermocrispum sp. RD004668) (protein)
chain: TTRTTDNPWLDARVLNMAHAGGENEAPANTLYAFKRAVKLGANMLELDVQSTKDDQLVVIHNATVDQTTDGTGKVRDLTFEQVHELDAAYNFIPGRHAVPGEPPESYPLRGVRTGEKKPPPGYQPSDFAIPKLADVLEAFPRTPINIEIKGTSDADIPSFLHNAKLLARLLKKTGRTDFIVTSFNDLAVAKFHLLAPDIPIAPGMAGLAAYFLLGVKPMHGTVALQIPVRYQGLEIATPEFIRRAHADGYAVHVWFSGTAPDDEATYNRIIDSCADGLMPAYPALLERILDERGIERPGRPGVDPCG
notes: pET24a(+), E. coli SHuffle T7, HisTrap purified; kinetics calculated as monomer
Km (purified protein; 2 mM CaCl2, 3 min): 456 µM | kcat (purified protein; 2 mM CaCl2, 3 min): 4.51 s⁻¹ | kcat/Km (purified protein; 2 mM CaCl2, 3 min): 9900 M⁻¹ s⁻¹ | Km [1]: 13.2 µM | kcat [1]: 70.6 s⁻¹ | kcat/Km [1]: 5.34e+06 M⁻¹ s⁻¹

B2: LyPls-PLD (rLyPls-PLD) (Thermocrispum sp. RD004668; F211A) (protein)
chain: B1 chain with F184A
notes: as for B1
Km [2]: 112 µM | kcat [2]: 24.8 s⁻¹ | kcat/Km [2]: 221000 M⁻¹ s⁻¹ | Km (purified protein; 2 mM CaCl2): 281 µM | kcat (purified protein; 2 mM CaCl2): 2.88 s⁻¹ | kcat/Km (purified protein; 2 mM CaCl2): 10300 M⁻¹ s⁻¹
